According to PMC314469, “Protein Interaction Networks by Proteome Peptide Scanning” (PLoS Biology, 2004):

T1: Rvs167 SH3 (RV167_YEAST), P39743
T1 chain: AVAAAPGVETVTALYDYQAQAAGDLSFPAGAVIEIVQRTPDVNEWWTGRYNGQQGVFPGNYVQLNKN

T2: Myo5 SH3 (MYO5_YEAST), Q04439
T2 chain: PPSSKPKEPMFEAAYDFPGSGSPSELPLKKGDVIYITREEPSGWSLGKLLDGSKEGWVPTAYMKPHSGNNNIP

T3: Yhr016c SH3 (YSC84_YEAST), P32793
T3 chain: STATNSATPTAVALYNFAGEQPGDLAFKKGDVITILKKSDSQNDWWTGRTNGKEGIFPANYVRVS

T4: Boi1 SH3 (BOI1_YEAST), P38041
T4 chain: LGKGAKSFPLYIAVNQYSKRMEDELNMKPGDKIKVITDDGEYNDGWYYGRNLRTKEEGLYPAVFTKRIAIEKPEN

T5: Yfr024 SH3 (LSB3_YEAST), P43603
T5 chain: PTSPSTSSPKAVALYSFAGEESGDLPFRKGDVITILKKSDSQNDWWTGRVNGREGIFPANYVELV

T6: Boi2 SH3 (BOI2_YEAST), P39969
T6 chain: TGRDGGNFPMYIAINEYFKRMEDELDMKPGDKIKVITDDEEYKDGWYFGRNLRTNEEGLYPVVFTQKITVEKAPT


Biological target: T1, Rvs167 SH3 (RV167_YEAST), P39743
Assay: SPOT array

| normalised SPOT signal, Boehringer light units (BLU); mean over the file's lines of this peptide | Binder |
| --- | --- |
| 160 | IYHSKKQPLVPIGS [YML030W 25-38] |
| 104 | ITSIRGSPSLPKNK [YKL071W 35-48] |
| 67.4 | ITDTKLFPGNPNLM [YFR029W 524-537] |
| 51.5 | IVNEKRTPALPSNL [YOR191W 260-273] |
| 41.7 | KALWKIQPYLPEFS [YML130C 280-293] |
| 58.6 | KFDAKGRPIPPHPD [YJL042W 327-340] |
| 63.7 | KDFSKNAPYNPSEV [YPR022C 111-124] |
| 111 | ITRARYMPQDPNIV [YEL056W 121-134] |
| 67.1 | KDKARGNPEKPPYW [YJL036W 14-27] |
| 32.3 | KDEVKLHPPEPKDL [YIL009W 251-264] |
| 84.8 | KAALKYHPDKPTGD [YNL007C 28-41] |
| 175 | KEFFRLTPNQPVGL [YOR168W 628-641] |
| 906 | KALPKRRPSPPLQS [YKR019C 209-222] |

biological target: Sho1 SH3 (SHO1_YEAST), P40073; assay: SPOT array
Sequence (P40073 295-366): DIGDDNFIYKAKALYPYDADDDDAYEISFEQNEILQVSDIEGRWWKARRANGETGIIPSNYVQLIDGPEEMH

| normalised SPOT signal, Boehringer light units (BLU); mean over the file's lines of this peptide | Binder |
| --- | --- |
| 144 | IYHSKKQPLVPIGS [YML030W 25-38] |
| 111 | ITSIRGSPSLPKNK [YKL071W 35-48] |
| 43.8 | ITDTKLFPGNPNLM [YFR029W 524-537] |
| 86.8 | IVNEKRTPALPSNL [YOR191W 260-273] |
| 178 | KALWKIQPYLPEFS [YML130C 280-293] |
| 27.1 | KFDAKGRPIPPHPD [YJL042W 327-340] |
| 42 | KDFSKNAPYNPSEV [YPR022C 111-124] |
| 153 | ITRARYMPQDPNIV [YEL056W 121-134] |
| 50.3 | KDKARGNPEKPPYW [YJL036W 14-27] |
| 50.6 | KDEVKLHPPEPKDL [YIL009W 251-264] |
| 60.7 | KAALKYHPDKPTGD [YNL007C 28-41] |
| 25.9 | KEFFRLTPNQPVGL [YOR168W 628-641] |
| 758 | KALPKRRPSPPLQS [YKR019C 209-222] |

Biological target: T2, Myo5 SH3 (MYO5_YEAST), Q04439
Assay: SPOT array

| normalised SPOT signal, Boehringer light units (BLU); mean over the file's lines of this peptide | Binder |
| --- | --- |
| 294 | IYHSKKQPLVPIGS [YML030W 25-38] |
| 370 | ITSIRGSPSLPKNK [YKL071W 35-48] |
| 94.6 | ITDTKLFPGNPNLM [YFR029W 524-537] |
| 102 | IVNEKRTPALPSNL [YOR191W 260-273] |
| 146 | KALWKIQPYLPEFS [YML130C 280-293] |
| 53.5 | KFDAKGRPIPPHPD [YJL042W 327-340] |
| 143 | KDFSKNAPYNPSEV [YPR022C 111-124] |
| 190 | ITRARYMPQDPNIV [YEL056W 121-134] |
| 59.9 | KDKARGNPEKPPYW [YJL036W 14-27] |
| 164 | KDEVKLHPPEPKDL [YIL009W 251-264] |
| 156 | KAALKYHPDKPTGD [YNL007C 28-41] |
| 43.8 | KEFFRLTPNQPVGL [YOR168W 628-641] |
| 1140 | KALPKRRPSPPLQS [YKR019C 209-222] |

Biological target: T3, Yhr016c SH3 (YSC84_YEAST), P32793
Assay: SPOT array

| normalised SPOT signal, Boehringer light units (BLU); mean over the file's lines of this peptide | Binder |
| --- | --- |
| 86.8 | IYHSKKQPLVPIGS [YML030W 25-38] |
| 44.2 | ITSIRGSPSLPKNK [YKL071W 35-48] |
| 15.4 | ITDTKLFPGNPNLM [YFR029W 524-537] |
| 11.6 | IVNEKRTPALPSNL [YOR191W 260-273] |
| 43 | KALWKIQPYLPEFS [YML130C 280-293] |
| 39.4 | KFDAKGRPIPPHPD [YJL042W 327-340] |
| 59.1 | KDFSKNAPYNPSEV [YPR022C 111-124] |
| 84.6 | ITRARYMPQDPNIV [YEL056W 121-134] |
| 19.5 | KDKARGNPEKPPYW [YJL036W 14-27] |
| 18.9 | KDEVKLHPPEPKDL [YIL009W 251-264] |
| 18.6 | KAALKYHPDKPTGD [YNL007C 28-41] |
| 14.9 | KEFFRLTPNQPVGL [YOR168W 628-641] |
| 2190 | KALPKRRPSPPLQS [YKR019C 209-222] |

Biological target: T4, Boi1 SH3 (BOI1_YEAST), P38041
Assay: SPOT array

| normalised SPOT signal, Boehringer light units (BLU); mean over the file's lines of this peptide | Binder |
| --- | --- |
| 182 | IYHSKKQPLVPIGS [YML030W 25-38] |
| 420 | ITSIRGSPSLPKNK [YKL071W 35-48] |
| 113 | ITDTKLFPGNPNLM [YFR029W 524-537] |
| 73.8 | IVNEKRTPALPSNL [YOR191W 260-273] |
| 0 | KALWKIQPYLPEFS [YML130C 280-293] |
| 460 | KFDAKGRPIPPHPD [YJL042W 327-340] |
| 76.6 | KDFSKNAPYNPSEV [YPR022C 111-124] |
| 2220 | ITRARYMPQDPNIV [YEL056W 121-134] |
| 247 | KDKARGNPEKPPYW [YJL036W 14-27] |
| 102 | KDEVKLHPPEPKDL [YIL009W 251-264] |
| 21.4 | KAALKYHPDKPTGD [YNL007C 28-41] |
| 136 | KEFFRLTPNQPVGL [YOR168W 628-641] |
| 1770 | KALPKRRPSPPLQS [YKR019C 209-222] |

Biological target: T5, Yfr024 SH3 (LSB3_YEAST), P43603
Assay: SPOT array

| normalised SPOT signal, Boehringer light units (BLU); mean over the file's lines of this peptide | Binder |
| --- | --- |
| 189 | IYHSKKQPLVPIGS [YML030W 25-38] |
| 1400 | ITSIRGSPSLPKNK [YKL071W 35-48] |
| 28.7 | ITDTKLFPGNPNLM [YFR029W 524-537] |
| 74.4 | IVNEKRTPALPSNL [YOR191W 260-273] |
| 201 | KALWKIQPYLPEFS [YML130C 280-293] |
| 224 | KFDAKGRPIPPHPD [YJL042W 327-340] |
| 0 | KDFSKNAPYNPSEV [YPR022C 111-124] |
| 486 | ITRARYMPQDPNIV [YEL056W 121-134] |
| 63.5 | KDKARGNPEKPPYW [YJL036W 14-27] |
| 0 | KDEVKLHPPEPKDL [YIL009W 251-264] |
| 32.9 | KAALKYHPDKPTGD [YNL007C 28-41] |
| 166 | KEFFRLTPNQPVGL [YOR168W 628-641] |
| 13400 | KALPKRRPSPPLQS [YKR019C 209-222] |

Biological target: T6, Boi2 SH3 (BOI2_YEAST), P39969
Assay: SPOT array

| normalised SPOT signal, Boehringer light units (BLU); mean over the file's lines of this peptide | Binder |
| --- | --- |
| 21 | IYHSKKQPLVPIGS [YML030W 25-38] |
| 31.5 | ITSIRGSPSLPKNK [YKL071W 35-48] |
| 2.3 | ITDTKLFPGNPNLM [YFR029W 524-537] |
| 20.9 | IVNEKRTPALPSNL [YOR191W 260-273] |
| 47.8 | KALWKIQPYLPEFS [YML130C 280-293] |
| 3.5 | KFDAKGRPIPPHPD [YJL042W 327-340] |
| 53.8 | KDFSKNAPYNPSEV [YPR022C 111-124] |
| 70.9 | ITRARYMPQDPNIV [YEL056W 121-134] |
| 15.2 | KDKARGNPEKPPYW [YJL036W 14-27] |
| 2.4 | KDEVKLHPPEPKDL [YIL009W 251-264] |
| 18.7 | KAALKYHPDKPTGD [YNL007C 28-41] |
| -0 | KEFFRLTPNQPVGL [YOR168W 628-641] |
| 30.5 | KALPKRRPSPPLQS [YKR019C 209-222] |
